Experimental data published in patent US12661385B2, “Modulation of mTORCI activity and autophagy via CIB2-RHEB interaction” (University of Maryland, Baltimore, priority 2018, dated 2026).

Tests used:
Rheb = Rheb (Homo sapiens, UniProt Q15382); assay: NanoSPD (nanoTRAP) interaction assay in COS-7 cells, Rheb; format: binding; set-up: host or cells: COS-7; settings: filopodia tip co-accumulation
Description: FIG. 14. […] Arrowheads indicate filopodia tip accumulation of hCIB2-eGFP, * indicates no accumulation of indicted constructs in the red channel. c. Representative confocal images (top panel) showing CIB2 (green) interaction with Rheb (red) and Raptor (red) using NanoTRAP assay. […] Arrowheads indicate filopodia tip accumulation of indicated constructs, * indicates no accumulation of indicted construct in the red or far-red channel. Scale bar: 10 μm. d. Quantification for nanoTRAP assay for images shown above. *** p<0.001 by one-way ANOVA. e, Co-IP experiments show interaction between Raptor and CIB2.
To reveal the molecular mechanism of CIB2-mediated mTORC1 modulation, we focused on the TSC-Rheb-mTORC1 axis. We performed an interaction screen of specific proteins including TSC1, TSC2, mTORC1-specific subunit Raptor, mTOR kinase, and Rheb. We used a recently-published quantitative interaction assay known as nanoscale pulldown 2.0 (NanoSPD), in which eGFP-nanobody tag fused to the myosin-HMM domain (nanoTRAP) preferentially migrates to the filopodia (Bird et al., Molecular Biology of the Cell 28, 463-475 (2017)). CIB2-eGFP (bait) migrated efficiently to filopodia in COS-7 cells only in the presence of the nanoTRAP. […] Many downstream and upstream targets of mTORC1 regulate its activity via binding to the mTORC1-specific subunit Raptor. […]

RPE-J cells = assay: Immunoblots for autophagy/lysosomal proteins in transfected RPE-J cells; format: cell-based, rat; settings: RPE-J cells over-expressing CIB2 vs GFP
Description: FIG. 12. CIB2 mutant mice have less autophagy/lysosomal proteins, and overexpression of CIB2. in vitro, is sufficient to boost levels of autophagy/lysosomal proteins and clearance of opsin. a. […] Pro-cathepsin D levels were quantified from non-saturated exposures. c. Representative immunoblots for indicated autophagy/lysosomal proteins from RPE-J cells transiently transfected with GFP or CIB2-IRES-GFP. Endogenous CIB2 is observable in long exposure immunoblot, while transiently overexpressed CIB2 is readily observable in short exposure immunoblot. d. Quantification for immunoblots shown in (c). n=5 (LAMP-1) or 4 (ATG5-ATG12) independent transfection experiments. e, Schematic of the pulse-chase phagocytosis assay (left panel)—also see Examples below. […]
Complementary to the findings of Cib2 mutant mice, over-expressing CIB2 in RPE-J cells increased LAMP-1 and ATG5-ATG12 complex proteins levels (FIG. 12c-d). […] To test this idea, we assessed LC3-II flux. LC3-I is a cytosolic protein which when lipidated with a phosphatidylethanolamine adduct (LC3-II form) localizes to the growing auto/phagosome membrane, and thus can be used as a reliable readout for the dynamic autophagic process (Valapala et al., Autophagy 10, 480-496 (2014); Kim et al., Noncanonical Autophagy Promotes the Visual Cycle. Cell 154, 365-376 (2013); Klionsky et al., Autophagy 12, 1-222 (2016)). […]

Rheb, sequence (Q15382 whole entry): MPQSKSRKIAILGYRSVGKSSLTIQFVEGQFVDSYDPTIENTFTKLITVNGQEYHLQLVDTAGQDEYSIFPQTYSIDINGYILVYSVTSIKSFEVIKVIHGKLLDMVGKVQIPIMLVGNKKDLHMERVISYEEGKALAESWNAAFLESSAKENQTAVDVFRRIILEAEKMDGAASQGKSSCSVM

B1: CIB2: calcium and integrin binding protein 2, over-expressed in cells from plasmid constructs; SEQ ID NO:1 (human), SEQ ID NO:2 (mouse) (protein)
chain: MGNKQTIFTEEQLDNYQDCTFFNKKDILKLHARFYELAPNLVPMDYRKSPIVHVPMSLIIQMPELRENPFKERIVEAFSEDGEGNLTFNDFVDMFSVLCESAPRELKANYAFKIYDFNTDNFICKEDLEMTLARLTKSELEEDEVVLVCDKVIEEADLDGDGKLGFADFEDMIAKAPDFLSTFHIRI
modifications: left off: large carriers
Interaction with Rheb (NanoSPD) (Rheb): interacts with Rheb | ATG5-ATG12 complex protein levels (RPE-J cells): increased | LAMP-1 protein levels (RPE-J cells): increased
